Columns and labels:
[1] = target: T1, mouse PCSK9, myc-myc-his tagged (mouse, UniProt Q80W65 35-694); test: SPR, mAb captured on anti-hFc, 25C
T1 construct: also called mPCSK9-mmh; mPCSK9

[2] = target: T2, tagged rhesus monkey (Macaca mulata) PCSK9 (rhesus monkey (Macaca mulata), UniProt A8T666 31-692); test: SPR, mAb captured on anti-hFc, 25C
T2 construct: also called mmPCSK9-mmh; mmPCSK9

Human PCSK9-myc-myc-his = target: T3, Human PCSK9-myc-myc-his (human, UniProt Q8NBP7 31-692); test: SPR, mAb captured on anti-hFc, 25C
T3 construct: also called hPCSK9-mmh; hPCSK9

[3] = target: T4, his-tagged Syrian golden hamster (Mesocricetus auratus) PCSK9 (Syrian golden hamster (Mesocricetus …)); test: SPR, mAb captured on anti-hFc, 25C
T4 construct: also called maPCSK9-h; maPCSK9
T4 chain: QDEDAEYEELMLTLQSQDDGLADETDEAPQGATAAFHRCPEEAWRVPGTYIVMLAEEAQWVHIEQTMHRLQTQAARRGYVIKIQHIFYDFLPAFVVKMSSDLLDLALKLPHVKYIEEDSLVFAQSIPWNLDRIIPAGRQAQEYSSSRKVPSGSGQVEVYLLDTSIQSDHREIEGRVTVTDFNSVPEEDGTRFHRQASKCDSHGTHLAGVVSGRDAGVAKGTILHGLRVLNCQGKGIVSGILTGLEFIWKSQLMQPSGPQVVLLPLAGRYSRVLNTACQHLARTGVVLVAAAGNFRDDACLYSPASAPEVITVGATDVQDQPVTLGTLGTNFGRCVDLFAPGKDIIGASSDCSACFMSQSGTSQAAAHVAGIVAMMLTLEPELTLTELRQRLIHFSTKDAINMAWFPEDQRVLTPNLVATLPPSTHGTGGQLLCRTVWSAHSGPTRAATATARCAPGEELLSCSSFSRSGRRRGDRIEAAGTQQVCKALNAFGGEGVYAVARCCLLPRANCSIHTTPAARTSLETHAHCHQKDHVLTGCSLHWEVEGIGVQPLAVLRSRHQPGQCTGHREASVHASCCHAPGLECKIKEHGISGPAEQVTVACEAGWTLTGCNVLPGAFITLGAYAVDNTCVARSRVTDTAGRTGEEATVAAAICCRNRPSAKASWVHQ

hPCSK9(D374Y)-mmh = target: T5, hPCSK9(D374Y)-mmh (human, UniProt Q8NBP7 31-692); test: SPR, mAb captured on anti-hFc, 25C
T5 construct: also called hPCSK(D374Y)-mmh

[4] = target: T6, cynomolgus monkey (Macaca fascicularis) PCSK9, myc-myc-his tagged (cynomolgus monkey (Macaca fascicularis), UniProt A8T662 31-692 (Macaca nemestrina entry), limits assumed); test: SPR, mAb captured on anti-hFc, 25C
T6 construct: also called mfPCSK9-mmh; mfPCSK9

[5] = target: T7, Chimeric protein #3 (mPro-mCat-hC-term-mmh) (mouse; human); test: ELISA, mAb coated, 1.7 nM antigen
T7 chain: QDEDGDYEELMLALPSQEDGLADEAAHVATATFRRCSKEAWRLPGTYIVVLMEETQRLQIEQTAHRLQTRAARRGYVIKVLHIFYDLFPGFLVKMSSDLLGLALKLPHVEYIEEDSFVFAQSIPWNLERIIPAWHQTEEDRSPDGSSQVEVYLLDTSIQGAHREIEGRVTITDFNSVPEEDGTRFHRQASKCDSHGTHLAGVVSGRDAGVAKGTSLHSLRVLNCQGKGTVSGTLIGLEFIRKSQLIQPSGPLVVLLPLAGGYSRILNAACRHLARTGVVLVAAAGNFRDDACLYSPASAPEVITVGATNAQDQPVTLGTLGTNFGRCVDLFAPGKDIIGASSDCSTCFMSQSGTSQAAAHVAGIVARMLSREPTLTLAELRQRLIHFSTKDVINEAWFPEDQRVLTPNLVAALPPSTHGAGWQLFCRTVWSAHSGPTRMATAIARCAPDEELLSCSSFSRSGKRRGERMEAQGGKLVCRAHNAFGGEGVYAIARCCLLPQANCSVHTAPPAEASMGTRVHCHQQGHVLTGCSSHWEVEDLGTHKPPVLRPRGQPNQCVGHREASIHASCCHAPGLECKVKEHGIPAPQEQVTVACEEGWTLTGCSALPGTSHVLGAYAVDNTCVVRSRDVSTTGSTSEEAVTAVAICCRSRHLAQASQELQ

T6 sequence (A8T662 31-692 limits assumed): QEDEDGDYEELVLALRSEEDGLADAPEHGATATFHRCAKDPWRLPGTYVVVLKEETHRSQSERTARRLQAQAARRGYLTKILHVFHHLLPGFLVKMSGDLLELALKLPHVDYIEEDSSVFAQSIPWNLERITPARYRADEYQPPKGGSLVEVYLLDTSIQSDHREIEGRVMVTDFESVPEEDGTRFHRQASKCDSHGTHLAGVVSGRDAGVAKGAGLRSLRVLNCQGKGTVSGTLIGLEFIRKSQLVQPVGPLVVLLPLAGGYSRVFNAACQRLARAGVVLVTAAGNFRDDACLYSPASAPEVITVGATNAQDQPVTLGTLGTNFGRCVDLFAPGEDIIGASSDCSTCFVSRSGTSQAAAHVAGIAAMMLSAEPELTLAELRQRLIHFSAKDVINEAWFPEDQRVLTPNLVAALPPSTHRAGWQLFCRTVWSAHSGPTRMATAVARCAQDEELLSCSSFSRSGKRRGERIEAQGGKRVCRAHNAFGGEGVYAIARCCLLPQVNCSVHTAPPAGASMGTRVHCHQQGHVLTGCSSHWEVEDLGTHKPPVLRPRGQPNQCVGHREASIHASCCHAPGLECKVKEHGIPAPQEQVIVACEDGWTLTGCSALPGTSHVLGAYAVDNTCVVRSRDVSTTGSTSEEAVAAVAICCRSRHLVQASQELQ
T1 sequence (Q80W65 35-694 limits assumed): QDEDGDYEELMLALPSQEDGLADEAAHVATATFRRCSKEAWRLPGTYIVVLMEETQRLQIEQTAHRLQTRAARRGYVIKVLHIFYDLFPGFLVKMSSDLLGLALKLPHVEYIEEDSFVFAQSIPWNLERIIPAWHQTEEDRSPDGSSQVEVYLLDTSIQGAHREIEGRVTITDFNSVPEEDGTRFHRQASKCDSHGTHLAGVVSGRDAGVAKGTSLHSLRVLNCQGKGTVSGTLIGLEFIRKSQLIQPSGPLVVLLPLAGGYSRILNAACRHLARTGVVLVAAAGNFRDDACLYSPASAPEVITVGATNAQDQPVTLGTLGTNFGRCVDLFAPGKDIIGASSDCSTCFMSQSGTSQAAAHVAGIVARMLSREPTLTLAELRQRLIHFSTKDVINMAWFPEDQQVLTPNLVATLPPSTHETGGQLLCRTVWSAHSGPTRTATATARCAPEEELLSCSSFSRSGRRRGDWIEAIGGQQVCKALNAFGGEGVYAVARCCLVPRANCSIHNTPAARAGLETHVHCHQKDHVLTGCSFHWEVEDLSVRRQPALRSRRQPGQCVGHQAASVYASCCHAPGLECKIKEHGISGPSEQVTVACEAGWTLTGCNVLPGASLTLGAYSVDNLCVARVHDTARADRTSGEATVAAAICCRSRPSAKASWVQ
T2 sequence (A8T666 31-692 limits assumed): as the sequence (A8T662 31-692 limits assumed) above, with A607P, E639K counted along it

B1: H1H316P (antibody, V domains shown)
VH: EVQLVESGGGLVQPGGSLRLSCAASGFTFNNYAMNWVRQAPGKGLDWVSTISGSGGTTNYADSVKGRFIISRDSSKHTLYLQMNSLRAEDTAVYYCAKDSNWGNFDLWGRGTLVTVSS
VL: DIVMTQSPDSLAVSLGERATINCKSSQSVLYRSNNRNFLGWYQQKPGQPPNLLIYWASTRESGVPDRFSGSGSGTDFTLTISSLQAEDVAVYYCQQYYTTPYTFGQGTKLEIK
notes: Fully human mAb made in CHO cells; also called mAb316P
Kd [1]: 2.3 nM
T1/2 [1]: 11 min
Kd [2]: 0.55 nM
T1/2 [2]: 92 min
Kd (Human PCSK9-myc-myc-his): 0.58 nM
T1/2 (Human PCSK9-myc-myc-his): 36 min
Kd [3]: 6.81 nM
T1/2 [3]: 5 min
Kd (hPCSK9(D374Y)-mmh): 1.69 nM
T1/2 (hPCSK9(D374Y)-mmh): 15 min
Kd [4]: 0.52 nM
T1/2 [4]: 60 min
OD [5]: > 1.5 od
